Measured values: paper PMC9876287, “Characterization of a new CCCTC-binding factor binding site as a dual regulator of Epstein-Barr virus latent infection”

Molecular target: T1, CTCF (UniProt P49711 1-727)
T1 sequence: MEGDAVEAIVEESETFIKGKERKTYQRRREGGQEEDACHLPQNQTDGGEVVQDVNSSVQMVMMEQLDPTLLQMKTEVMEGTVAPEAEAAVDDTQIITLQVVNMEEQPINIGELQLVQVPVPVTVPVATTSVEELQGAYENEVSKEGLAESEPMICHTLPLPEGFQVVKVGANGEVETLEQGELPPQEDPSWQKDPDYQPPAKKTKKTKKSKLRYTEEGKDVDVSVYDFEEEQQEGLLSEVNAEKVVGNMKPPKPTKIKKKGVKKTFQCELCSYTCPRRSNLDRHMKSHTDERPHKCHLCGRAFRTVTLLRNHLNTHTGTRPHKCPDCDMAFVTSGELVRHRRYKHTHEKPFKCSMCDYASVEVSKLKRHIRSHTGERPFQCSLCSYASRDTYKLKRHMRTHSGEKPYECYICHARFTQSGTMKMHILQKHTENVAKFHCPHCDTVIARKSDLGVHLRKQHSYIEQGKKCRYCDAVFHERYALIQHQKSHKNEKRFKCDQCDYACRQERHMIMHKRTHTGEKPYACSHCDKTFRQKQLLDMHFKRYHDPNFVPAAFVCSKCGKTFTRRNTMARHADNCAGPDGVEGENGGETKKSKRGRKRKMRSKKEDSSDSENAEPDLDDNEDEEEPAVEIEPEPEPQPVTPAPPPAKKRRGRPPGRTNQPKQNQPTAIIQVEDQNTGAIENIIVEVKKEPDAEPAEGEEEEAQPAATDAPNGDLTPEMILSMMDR
Test: MST; sonicated salmon sperm DNA competitor (2000 ng); MST: 125 nM DNA, 0-12.5 uM protein, 1X EMSA buffer (from 4X: 100 mM KCl, 20 mM HEPES pH 8.0, 0.2 mM EDTA, 20% glycerol) with 1 mM DTT (fresh), salmon sperm DNA; 60 min on ice
Conditions: protein: recombinant; tags: His; label: 5' FAM (5-carboxyfluorescein) on forward strand; blunt

B1: Wt S13 49-mer (dsDNA)
DNA 1: TTTGTTAATCTTTAGTGGGAACTAGTGGGAGTGCTGTGCCTCGGGTACC
DNA 2: GGTACCCGAGGCACAGCACTCCCACTAGTTCCCACTAAAGATTAACAAA
Kd: 4.8 ± 2.3 µM
